Measured values as given in the NTF2 design screens of Basanta et al. (2020).

Assay: protease stability score; higher = more stable; yeast display proteolysis, trypsin and chymotrypsin;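 also: relative to predicted unfolded state with 0 unfolded-like and 1 meaning tenfold more protease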

Row | Sequence | protease stability score
1 | DEHTDYIREILRLLSEVVRTGDEDSLRRLLDPDARIVINGVDLIGMEHWFRLMFEIRHFAEDSKLEHSEVQGDKVIAHGRYHGEYEFDGRRRRHDTEVEMHVHKIDGRWYVRSLSIR | 1.72
2 | DEHTEDTRHLEEFMLRAIKTGDEHILKRLMDPNARNEQGDKHQHGMEIIAEEWSRIKNVKVIFHRVRIQGDKIDVDGELIVNGVTMRVEFYSRKIDGRWVIHSVHFE | 1.17
3 | DEHTEEAKHWVTRFIHALSTGDFEQIERLADPHVRVEIGDKEIHGMEFLSEHVLKFKGIRTNIRHIEIHYYDGRVNVEVDIDIHIGDKTVNSELHIHIEKVDGRWVITSLHIRTR | 1.46
4 | DEHTEHSKKLADLIMEWLKTGNEEILRKRMDPNTKIHIEVDGREENTHGWEEFERWLKELGIKHFELKHVHIQGDKSFVDGTLEVNGQRRRIIFIFIVVDGRIQSIRVIVI | 2.12
5 | DEHTHEAHKFLREYWSNLQTGDEEKIINLVDPRVRMIINGKELHGREEFSKALHDEYRRMGMTIQTFTLQHLEIQGEKVHADVEIITHYDGRHTSIHLHLIVQKINGRWLMREVEIR | 1.32
6 | DEHTHEIEHMLRHFLETLETGDEERYDRLADPHTRIDIGDKHLHGREKAQKLWRHWWKRFDHIHHLHIHHLEAVDGVNHVELREDIRVDGRRVIIRSLLILVVIDGRLREVRVEER | 0.496
7 | DEHTKEMKHFLKEWLHNFFTGNEERWAHLADPHVRSDINGVELHGWDLLFRKMRKHREDLGAPHIRDFHIHSMHVINGVIHIDGEIDVDVNGVRIRSRVEIHLNVVNGRNKSEHYHHI | 0.68
8 | DEHTKFLEKLLRDWMESVLTGDEHLIKRYADPNVRLDFNGQQFHGRDSMVHLLKEWRIKHFKLDSFFAIDGVTFVDGESRGEVNGQETENRLHVEIFVVNGKVTHVKIRIL | 1.68
9 | DEHTKLLEDLVKILLFIRKTGDEDTFNKLFDPNVRLVQGDKTYHGRETFNKTMREWRIHHFEIKRSHFIGEWAEIDGHEDGDINGQKIRTDVEIILIIIDGRIKSIEYRPL | 0.929
10 | DEHTRLMDRVSKELMHYRRTGDEHSLDHLLDPHVRLDQGDWEKHGMEEYIEFVRRVKNVKLRIHDITVDIVNGVVIVFIDGILHVNGVDITTRIHIYFRKVNGVWLVESLRYEVG | 0.373
11 | DEHTSRLERLAHLFFESWITGDFDALLKYLDPNVRIEQGDKHIHGREVMFEHLERLLKHWWFHEHRLRDVKSVNGVSHLHVHQRNEINGVELRYDFHIHLYIVDGRLKSMEFRIS | 1.07
12 | DEIDEAIIEFFRLMLEWNETGDEEYIDTLIDPHTQLKIIYGDKDREFIGREEYFKIVLEWRIKEVRIHSIHTQGNKLNIDGEINGNIDGRDTKTRINIHFIVVNGRLKTITLRFE | 2.43
13 | DEIDEISKQMVRDFVHSWRTGDWKVLRELADPHALIIFNGREFHGWEHILRVFLELIRRYKNARVDIEEVIVQGDKIHIHLRIDQGDKSHTVNIHIDIIDGKLKRLEIDVT | 2.27
14 | DEIDELMEMMARILIRLWQTGDEETWSRLADPDVRVTIGEFHTHGMERALLIIQEIRRHWRIHHIHIHDMRVFENRSRVNGKVDGEIDGQKDVRETRIEVVLIDGRLQEVRVKTK | 0.91
15 | DEIDERLHFLMKRVLHLWETGDWDMWMNYADPHVRHEIIIGDKRYSLHGREEYAEELLRHHRHIRLHTIHITHIDVVNGRVELNGRVNGDINGQHVDVELYVELKVVDGRIESERMEFR | 0.412
16 | DEIDHRAREVAERILKSMLTGDFDTLRELMDPHVRVILSVNGRENHTVGREWFAHVVKEWIDRVDVHQIDVERVELQGEKVHMDTNLRIHYGDKSITRKTEIIIDVVDGRVHYVRFIIR | 2.52
17 | DEIDNELKTALRRLLHTWMTGDEDSLERLADPNVRFHQGDKDMHGREHMVKWFKEMIDRFPNLRIHDFIISEVRFFDGKAELIGTVLRTYGDKTDEVDFTIISTKIDGQWRIHEIRIN | 1.26
18 | DEIEDELRTVYELTVKALTTGNEDLLRNYLDPDTRFIIDGRDLHGMDEINELWREWRIHIHDTKIHSIRTQGNFADVHGRLHGTFIFNGKIEHTTREVRLIFVKVNGRWVINSVVIR | 1.63
19 | DEIEDHMREVREQLLRDLTTGDWKKMREMLDPHVRIHIGDFHDHGRESAEEWLRKFKGLTLRIHDVRVKIIDGRALVENDGELTYDGRRHRVRIHVYVTKVDGVWMVETLEIRIH | 1.15
20 | DEIEEDMRKSIEDVIKAHLTGDEKTYRRLFDPHVRIDIDGVDFHGWEESRRMLQEIRISIEDWKIERMEIQGDKIHIDSRVDLTVYIDGKKERDTIERHIILVKFDGRWTIESVDFR | 1.37
21 | DEIEEEAKEMTKRILEDIKTGDEDSIFKLMDPNVKLVVGEKIHIGRETASKFFRKHWEDLGITRVESHLRTTHLIDGRVHVHSETNWNGVRIEVIIEIEKVNGRWVIREIHIHMH | 1.29
22 | DEIEEEVRKFAEIHSRDLMTGNFESFREQADPHVRVIINGREFHGWHFLFHWLQEMRIHRVRIEDVRVYGDKAILDTRVESHVDGRTFDLEFKLVLSKVDGRWRVHQIILR | 1.11
23 | DEIEEIAREIAKELHHLILTGDEDRLNELMDPNVKFESIVNGRRIESIGRENVKEVLRRLLEKLGLDRFSFIRRDIKYFDGVIHIFGQLEIDGVRHETEIIIFIVNGKVKSIRIRIQ | 1.14
24 | DEIEEKIETHIKILLHASRTGDWELNSHNADPHTRIDIDGVELHGMEHFFTIMKEMRMKEYTLHHIEVQGEKIRIRGELRGEWDGKEEVVDVILIIVKIDGKWLIKEVRFR | 1.07
25 | DEIEELSNRLLELLRHFLQTGDEDMLRKLMDPHVRIDIDGQDFHGRESAVKLLRFWIDHMRWKDRRLRHVRIQGNFIEIDTIEHGEINGREHDLTTHIIASKVNGRWVLHSILFR | 1.81

Row | Sequence | protease stability score
26 | DEIEEQSRRALHEYINKILTGDEKSLTDLMDPDARLIVGDKEVHGRKLVHEWMSQWTEHIRIKHVHLHDIEIIGEKVHLDMRLHGIINGKETEHKVELHMYKINGKWIIHTVKIL | 2.04
27 | DEIEERTKELMKIDLELLETGDEETLLHLLDPHVKIITWINGRRVQRVGRHIWVHWLRYLGIDHLHVDDVEVQGDKITFDMTIEINGRTHKAVLRSQVVDGKITSLEIEVR | 1.63
28 | DEIEETIKHLMEEWETSMQTGDEDRIKELLDPHARLEIGEWEFIGRERVAHFLSRADHSEYRIRRIRMIGDKIDIRLEVRLHVNGREIRTETHLIILKINGRWFFKSTHIT | 1.62
29 | DEIEEVFREYTERIVDMWKTGDEELTNRNMDPNARMRIDVNGRDLELHGRERWIEHFRELGIKYEEIRDVRLRLVGDKANLEIDGEVDVNGQKHHTSLIIHVEKINGKWVISRIIFFIR | 1.2
30 | DEIEHAVRLAYERWLHEFETGDEEETLRNADPDTMIVINGRHLHGREHFTRWLKRIDHQHMHHEDFTHIDHQGDKLHLNVHVSIEVEINGVRYVLEHENEIVQTKIDGQWILTYIIIR | 1.25
31 | DEIEHESEEILRMWLHAIKTGDEEFLKQYIDPHAKLDINGVEFHGREHIVRFIVELRMHDHRVQDSRKVGNKVILHTRVDSIIGDKRIDTHVTIIVRKIDGKWRLEEYRVS | 2.55
32 | DEIEHEVERVVREWMRAYITGDEDTLQHLLDPHVLSVIDGVNIHGMENVTEYLRRHLEKIKNVQIEDMRIHRLDIQGNKLDLDTRLHITFNGVPEVLETRLILTKIDGKWWMHQVIIN | 2.42
33 | DEIEHHDRIIHHLTLHAFFTGDESITEHLADPDVRLDIVQGDKFNHVIGREMVVQWLEEWWRRVKNARFRVHRVEVINGQVNLRVEVDINGKRVDFTLIIIVIDGKIRSQEVIFH | 1.67
34 | DEIEHLIRRIMEEIVHVFETGDEEKLEELMDPNTIFIIGDKRYVGREAVDVLLRRADVMTRFHIKSMRTVGDKIDLNTSIHVHFDGVHREIDTHVIARKVDGRWHWDSVRVE | 1.2
35 | DEIEHLVHWAVEVYRHVLETGNESDLFRLFDPHVKLDVNGKEIVGREDVIEFISREIKQFDHVKLRIHRIDFQGDFVEVEGRLIVRQGDKEIRHDVRIYAEKIDGQWNVKSLSFR | 2.48
36 | DEIEHMIHEIFERWIKAWLTGDWRTIEKLFDPDVRVEINGVEIIGRELMSKVLIRKYDEMRSRVKLESEHAQGDKAHFNVNIILHIGDKTIERRSRIHIRIYNGRIHEVRVEED | 2.4
37 | DEIEKELTDVFWEWLHLHITGDEDRLRDLMDPDVRLIYGDKTAVGREEFEKMWRELRHRFDHIRNVQIHDKRIVGNKLEMDFNFDHEVNGRREHTRVKIVLITINGKLHAFRIEVE | 1.4
38 | DEIEKEMLKRARDILENWVTGDEDEFNRLADPNVRFELVYGDKSHSHHGMENLKKWLEEWTKRVDHFDLKIKSQRVVGDKAETETKLILNYDGRRFEHDTRIDVVVVNGRIKQIRVEIR | 1.59
39 | DEIEKESERVMEKYFEDFITGDWETMWRQVDPHVKFRIGDKHFHGREQATRVYKEFLDELGVKVRRIHDFEFTLFDGRAYVHLDSTLRVNGRDHRLHITIIVEKINGRWRLHEFELRLH | 0.367
40 | DEIEKHHRELIELLFHWWHTGDFDSFHRFADPDVKLDFNGVEIHGRERANEFMTRLKEEIRIDDVKLERVQVIDGRMIIHGRRDGNVNGQKEDREVELYVIAINGRIKSVEIRIR | 1.71
41 | DEIEKSVKHHDQVFRTAIETGDEHELEHLADPNVRWDINGVDLHGRELYLKIVLEIRMRIELRVRDVRWQGNYIIVISEVDSHHHINGVETRDRSDAHLIIFKVNGRWELKESRRH | 1.35
42 | DEIEKVLEISYRLMHESWRTGDEDHLRDLIDPHARVIIDGRTYHGRDAMHLFVDELLREFGITQVDIEMKRIHVQGDKVESHHDINFNGQRVEVDISFHKVNGRWIAESVTWR | 1.24
43 | DEIENLIVKLAMDFIKDEITGDEERLRHLADPHTRHHIGDKHFHGMELIMKHWKTMADRFDHLEVRLEHVRVQGDKVDVHGHIIEEYNGKRIEHHIRLNVEIVDGRVTRYHVKID | 1.32
44 | DEIEQIMEYLAHVHIEFIITGDEDTLEHLADPHVKIEVNGQSLVGWKHWSRFLKKLGWKRDMRVRHIHAQGDKIHVDGHLVNDFDGREFRYKTHLEIKVVDGKLKVIRIDQE | 1.41
45 | DEIEREAKHVVHLLIHALLTGDERLFEELVDPDARLVINGRHYHGREEVNLAMKEWRLHRFEIKDFQYEWQGNKIISRIHTREDGHVDGQRVETRSELVIFLVKINGRWRMEFVEFRFS | 2.42
46 | DEIERESRKFFELWVHWYRTGNFEEIHKNLDPNARIEINGREIHGREDVLRLLEEIAKQFDHIEVELKDMHVQGDKMTIEGIIIFHFNGKRVEIHMIHIVLKINGQWFEHSQEYN | 0.626
47 | DEIERKVIEFWHLLRHALITGDEDLIEDLFDPHVRTDIGDKEHHGREEFRRLWREHGIRIKDVHIEHVTIIGNKVDMEVRFHLEINGRETHKRVILVAQKIDGRWRIREYHVK | 1.88
48 | DEIERLFRELVNLIFELLRTGNFRKLEELLDPHTRLTIGDKYYHGRESVIEYLKHLWEQLGVDHMEFHVKRVDIQGEKVNADTEIRIKIGDKTYFRDTVLIFLKIDGRWEIRAWEEK | 1.52
49 | DEIERLLKEVMRIFYENFQTGDEESLKELADPNVRYQIGDKSDHGREHLWRVQHEVHRRMGIKHTHLLIKSVEIVDGVAVIHGSLRLDFDGRHIEWHLHLRLKLIDGKIKEVEHELV | 1.36
50 | DEIERRAREFFELWMQTVRTGDEHASSELLDPHVRIEQGDKSFHGRETYNEILHHLHRHMWFEIYLDSIEIQGDKIHARVNFVYIIGDKESWIDVHIHIDVINGRMKRLEIRDH | 0.511
